The results in this text go back to paper PMC10747088, “Self-Penetrating Oligonucleotide Derivatives: Features of Self-Assembly and Interactions with Serum and Intracellular Proteins”.

The target of this data set is human serum albumin (HSA) (Homo sapiens, UniProt P02768 25-609). In words: fluorescence titration (FAM); PBS; 10 uM oligomer; HSA Kd: 10 uM oligomer, PBS, 30 min, 25 C (Methods) or 37 C (Figure S7); HSA EMSA: TA/TAM buffer, 1 h, native 8% PAAG at 37 C; Ku/PARP1 EMSA: 50 mM Tris-HCl pH. The conditions noted are these: protein: commercial, label: 5'-FAM, single strand, micelles.
Sequence of human serum albumin (HSA) (P02768 25-609): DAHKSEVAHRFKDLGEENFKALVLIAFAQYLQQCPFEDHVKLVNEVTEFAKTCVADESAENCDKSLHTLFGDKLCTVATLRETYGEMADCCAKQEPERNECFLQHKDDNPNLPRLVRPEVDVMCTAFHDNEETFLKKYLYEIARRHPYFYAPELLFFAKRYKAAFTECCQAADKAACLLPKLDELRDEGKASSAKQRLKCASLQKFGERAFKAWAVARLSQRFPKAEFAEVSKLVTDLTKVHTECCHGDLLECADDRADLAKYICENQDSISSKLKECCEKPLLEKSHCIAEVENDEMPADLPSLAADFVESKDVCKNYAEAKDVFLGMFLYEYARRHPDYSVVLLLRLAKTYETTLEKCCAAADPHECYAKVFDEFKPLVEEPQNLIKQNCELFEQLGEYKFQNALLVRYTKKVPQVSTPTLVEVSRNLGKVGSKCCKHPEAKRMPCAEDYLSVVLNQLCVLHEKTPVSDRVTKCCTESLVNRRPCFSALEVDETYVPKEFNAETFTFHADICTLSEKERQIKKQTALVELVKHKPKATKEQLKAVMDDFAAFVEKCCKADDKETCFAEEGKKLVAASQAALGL

B1: FAM-TZD16 (FAM-TZ16) (ssDNA)
DNA: CTGACTATGAAGTATT
modifications: triazinyl phosphoramidate with two dodecyl groups at the last internucleotide phosphate (T15*T16)
Usually Kd stands for the concentration at which binding is half-saturated. Low values mean tighter binding, high ones weaker binding. For the molecule B1, the dissociation constant (Kd) turned out to be 1500 ± 100 nM.

B2: FAM-TZD17 (FAM-TZ17) (ssDNA)
DNA: AGTCTCGACTTGCTATT
modifications: triazinyl phosphoramidate with two dodecyl groups at the last internucleotide phosphate (T16*T17)
Regarding B2, binding (can form weak hairpin or self-dimers) was put at a Kd of 1200 ± 200 nM.
